According to patent publication US8147838B2, “Peptide” (priority 2005, dated 2012):

Columns and labels:
Details in all cases: percent of positive control peptide binding; peptide at 1.11×10^−5M
[1] = biological target: MHC class I allele A*0301 (A3) (Homo sapiens, UniProt P04439); assay: iTopia peptide binding assay, A*0301
Description: (§1) The 9 mers were tested for Peptide Binding, Off Rate and Affinity using iTopia Epitope Discovery System in accordance with the manufacturer's instructions. Briefly, 96 well microtitre plates coated with MHC molecules representing different MHC alleles are used to identify candidate peptides. […] Determinations are performed in duplicate using an ELISA plate reader and included allele specific positive controls.
(§2) i) Peptide Binding—This assay measures the ability of individual peptides to bind to the MHC molecules under standardized optimal binding conditions. The assay is performed for all the test peptides across the selected MHC alleles. The test peptides identified as “binders” are characterized further in terms of affinity and dissociation experiments.
(§3) Following a period of binding under optimal conditions, excess antibody is removed and a measurement of total fluorescence taken (D).
(§4) The binding of the test peptides to the MHC molecules was performed at 1.11×10^−5M of peptide under optimal, standardised test conditions. A control peptide was run in parallel on the same plate and at the same concentration as the test peptides.
(§5) The level of binding is expressed as a percent of positive control peptide binding for each allele.

[2] = biological target: MHC class I allele B*0702 (B7) (Homo sapiens, UniProt P01889); assay: iTopia peptide binding assay, B*0702
Description: as §1, §2, §3, §4, §5

[3] = biological target: MHC class I allele A*0201 (A2) (Homo sapiens, UniProt P04439, D140Y/D185E/D98H/E176V/E277Q/G131W/G231S/I119V/I121R/I166T/I218V/L300P/L318F/N151K/N90K/P208A/P217A/Q86G/Q94H/R138H/R169H/T345S); assay: iTopia peptide binding assay, A*0201
Description: as §1, §2, §3, §4, §5

[4] = biological target: MHC class I allele A*0101 (A1) (Homo sapiens, UniProt P04439, A114D/A174V/A182V/D101N/D185E/E176A/E190D/L180R/Q94H/R68K/S129P/T187R/V100A/V91M/W191G); assay: iTopia peptide binding assay, A*0101
Description: as §1, §2, §3, §4, §5

Sequence | Peptide binding, MHC Class I Molecule A*0301 [1] | Peptide binding, MHC Class I Molecule B*0702 [2] | Peptide binding, MHC Class I Molecule A*0201 [3] | Peptide binding, MHC Class I Molecule A*0101 [4]
NNPWVCDCH [Peptide 147] | 16 % of control | 4 % of control | 0 % of control | 0 % of control
AALNLSGSR [Peptide 61] | 13 % of control | 3 % of control | 6 % of control | 3 % of control
LCECSEAAR [Peptide 33] | 0 % of control | 0 % of control | 8 % of control | 3 % of control
HNPLADLSP [Peptide 76] | 3 % of control | 5 % of control | 7 % of control | 5 % of control
ASAVSAQPP [Peptide 25] | 0 % of control | 0 % of control | 5 % of control | 2 % of control
LPSLRHLDL [Peptide 117] | 1 % of control | 96 % of control | 16 % of control | 0 % of control
DLDCDPILP [Peptide 171] | 4 % of control | 3 % of control | 0 % of control | 0 % of control
NRNLTEVPT [Peptide 40] | 0 % of control | 5 % of control | 6 % of control | 1 % of control
GKDRLTCAY [Peptide 159] | 6 % of control | 4 % of control | 6 % of control | 3 % of control
SGSNASVSA [Peptide 82] | 3 % of control | 11 % of control | 15 % of control | 5 % of control
GAIFLLVLY [Peptide 184] | 5 % of control | 0 % of control | 5 % of control | 0 % of control
PPEDERQNR [Peptide 93] | 0 % of control | 0 % of control | 2 % of control | 0 % of control
SLRQLDLSH [Peptide 72] | 11 % of control | 13 % of control | 6 % of control | 0 % of control
RRLELASNH [Peptide 107] | 3 % of control | 3 % of control | 5 % of control | 0 % of control
SEAARTVKC [Peptide 35] | 0 % of control | 0 % of control | 1 % of control | 5 % of control
SAQPPLPDQ [Peptide 27] | 0 % of control | 3 % of control | 13 % of control | 2 % of control
NGTLAELQG [Peptide 138] | 3 % of control | 0 % of control | 9 % of control | 3 % of control
KGIKKWMHN [Peptide 190] | 3 % of control | 6 % of control | 14 % of control | 3 % of control
PRLTNLSSN [Peptide 205] | 2 % of control | 11 % of control | 8 % of control | 2 % of control
IRVFLDNNP [Peptide 144] | 3 % of control | 5 % of control | 4 % of control | 0 % of control
VKCVNRNLT [Peptide 38] | 0 % of control | 2 % of control | 3 % of control | 6 % of control
PHIRVFLDN [Peptide 143] | 3 % of control | 10 % of control | 2 % of control | 0 % of control
ACRDHMEGY [Peptide 196] | 4 % of control | 7 % of control | 8 % of control | 3 % of control
DEVRAGAFE [Peptide 66] | 7 % of control | 12 % of control | 9 % of control | 6 % of control
RDVLAQLPS [Peptide 114] | 3 % of control | 4 % of control | 15 % of control | 1 % of control
PALCECSEA [Peptide 32] | 0 % of control | 0 % of control | 19 % of control | 4 % of control
LHLEDNALK [Peptide 132] | 5 % of control | 0 % of control | 4 % of control | 4 % of control
EGYHYRYEI [Peptide 199] | 0 % of control | 4 % of control | 9 % of control | 0 % of control
AALLAGRAL [Peptide 101] | 0 % of control | 59 % of control | 38 % of control | 1 % of control
